FireProtDB (doi:10.1021/bi0027783)
Values joined by “and” are separate entries in the source; they are usually repeats but may differ in a detail not shown here. Equal entries are not always repeated.

Settings: Allium sativum, reversible: yes, whole UniProt chain shown; for denaturant m value / denaturant midpoint (higher = more stable) / unfolding free energy: GdnHCl
[1] = pH 5, Thermal, DSC, citrate phosphate 20 mM
[2] = pH 5.5, Thermal, DSC, citrate phosphate 20 mM
[3] = pH 5.8, Thermal, DSC, citrate phosphate 20 mM
[4] = pH 6, Thermal, DSC, citrate phosphate 20 mM
[5] = pH 7.5, 50.7 °C, Thermal, CD, PBS 20 mM
[6] = pH 7.5, 53.3 °C, Thermal, CD, PBS 20 mM
[7] = pH 7.5, 55.7 °C, Thermal, CD, PBS 20 mM
[8] = pH 7.5, 56.3 °C, Thermal, CD, PBS 20 mM
[9] = pH 7.5, 60.8 °C, Thermal, CD, PBS 20 mM
[10] = pH 7.5, 64.2 °C, Thermal, CD, PBS 20 mM
[11] = pH 7.5, 66.4 °C, Thermal, CD, PBS 20 mM

RNILMNGEGLYAGQSLDVEPYHFIMQEDCN [wild type]
Tm [1]: 75.5 °C
unfolding enthalpy (van 't Hoff) [1]: 132 kcal/mol
Tm [2]: 74.6 °C
unfolding enthalpy (van 't Hoff) [2]: 130 kcal/mol
Tm [3]: 73.9 °C
unfolding enthalpy (van 't Hoff) [3]: 128 kcal/mol
Tm [4]: 73.1 °C
unfolding enthalpy (van 't Hoff) [4]: 125 kcal/mol
Tm (pH 7, Thermal, DSC, PBS 20 mM): 70.9 °C
unfolding enthalpy (van 't Hoff) (pH 7, Thermal, DSC, PBS 20 mM): 118 kcal/mol
denaturant m value (pH 7.5, 10 °C, CD, PBS 20 mM): 2.61 kcal/mol/M
denaturant midpoint (higher = more stable) (pH 7.5, 10 °C, CD, PBS 20 mM): 4.9 M
unfolding free energy (pH 7.5, 10 °C, CD, PBS 20 mM): 12.8 kcal/mol
denaturant m value (pH 7.5, 15 °C, CD, PBS 20 mM): 2.23 kcal/mol/M
denaturant midpoint (higher = more stable) (pH 7.5, 15 °C, CD, PBS 20 mM): 5.84 M
unfolding free energy (pH 7.5, 15 °C, CD, PBS 20 mM): 13 kcal/mol
denaturant m value (pH 7.5, 20 °C, CD, PBS 20 mM): 2.25 kcal/mol/M
denaturant midpoint (higher = more stable) (pH 7.5, 20 °C, CD, PBS 20 mM): 5.84 M
unfolding free energy (pH 7.5, 20 °C, CD, PBS 20 mM): 13.1 kcal/mol
denaturant m value (pH 7.5, 25 °C, CD, PBS 20 mM): 2.3 kcal/mol/M
denaturant midpoint (higher = more stable) (pH 7.5, 25 °C, CD, PBS 20 mM): 5.6 M
unfolding free energy (pH 7.5, 25 °C, CD, PBS 20 mM): 12.9 kcal/mol
denaturant m value (pH 7.5, 30 °C, CD, PBS 20 mM): 2.64 kcal/mol/M
denaturant midpoint (higher = more stable) (pH 7.5, 30 °C, CD, PBS 20 mM): 4.62 M
unfolding free energy (pH 7.5, 30 °C, CD, PBS 20 mM): 12.2 kcal/mol
denaturant m value (pH 7.5, 35 °C, CD, PBS 20 mM): 3.21 kcal/mol/M
denaturant midpoint (higher = more stable) (pH 7.5, 35 °C, CD, PBS 20 mM): 3.4 M
unfolding free energy (pH 7.5, 35 °C, CD, PBS 20 mM): 10.9 kcal/mol
denaturant m value (pH 7.5, 40 °C, CD, PBS 20 mM): 4 kcal/mol/M
denaturant midpoint (higher = more stable) (pH 7.5, 40 °C, CD, PBS 20 mM): 2.41 M
unfolding free energy (pH 7.5, 40 °C, CD, PBS 20 mM): 9.65 kcal/mol
denaturant m value (pH 7.5, 45 °C, CD, PBS 20 mM): 3.89 kcal/mol/M
denaturant midpoint (higher = more stable) (pH 7.5, 45 °C, CD, PBS 20 mM): 1.99 M
unfolding free energy (pH 7.5, 45 °C, CD, PBS 20 mM): 7.74 kcal/mol
denaturant m value (pH 7.5, 50 °C, CD, PBS 20 mM): 3.83 kcal/mol/M
denaturant midpoint (higher = more stable) (pH 7.5, 50 °C, CD, PBS 20 mM): 1.5 M
unfolding free energy (pH 7.5, 50 °C, CD, PBS 20 mM): 5.75 kcal/mol
heat capacity change of unfolding [5]: 3.64 kcal/mol/K
unfolding enthalpy (van 't Hoff) [5]: 115 kcal/mol
heat capacity change of unfolding [6]: 3.59 kcal/mol/K
unfolding enthalpy (van 't Hoff) [6]: 118 kcal/mol
heat capacity change of unfolding [7]: 3.5 kcal/mol/K
unfolding enthalpy (van 't Hoff) [7]: 124 kcal/mol
heat capacity change of unfolding [8]: 3.4 kcal/mol/K
unfolding enthalpy (van 't Hoff) [8]: 136 kcal/mol
heat capacity change of unfolding [9]: 3.32 kcal/mol/K
unfolding enthalpy (van 't Hoff) [9]: 142 kcal/mol
heat capacity change of unfolding [10]: 3.25 kcal/mol/K
unfolding enthalpy (van 't Hoff) [10]: 153 kcal/mol
heat capacity change of unfolding [11]: 3.2 kcal/mol/K
unfolding enthalpy (van 't Hoff) [11]: 173 kcal/mol
unfolding enthalpy (calorimetric) (pH 7.5, Thermal, DSC, PBS 20 mM): 96.4 kcal/mol and 116 kcal/mol and 118 kcal/mol
Tm (pH 8, Thermal, DSC, PBS 20 mM): 69.2 °C
unfolding enthalpy (van 't Hoff) (pH 8, Thermal, DSC, PBS 20 mM): 113 kcal/mol
